Tests used:
Assay in all cases: Kinase Profiling Assay
Format in all cases: biochemical
Settings in all cases: 100 μM
ARK5 (h) = target: T1, ARK5 (h) (Homo sapiens, UniProt O60285)
T1 sequence (O60285 1-661): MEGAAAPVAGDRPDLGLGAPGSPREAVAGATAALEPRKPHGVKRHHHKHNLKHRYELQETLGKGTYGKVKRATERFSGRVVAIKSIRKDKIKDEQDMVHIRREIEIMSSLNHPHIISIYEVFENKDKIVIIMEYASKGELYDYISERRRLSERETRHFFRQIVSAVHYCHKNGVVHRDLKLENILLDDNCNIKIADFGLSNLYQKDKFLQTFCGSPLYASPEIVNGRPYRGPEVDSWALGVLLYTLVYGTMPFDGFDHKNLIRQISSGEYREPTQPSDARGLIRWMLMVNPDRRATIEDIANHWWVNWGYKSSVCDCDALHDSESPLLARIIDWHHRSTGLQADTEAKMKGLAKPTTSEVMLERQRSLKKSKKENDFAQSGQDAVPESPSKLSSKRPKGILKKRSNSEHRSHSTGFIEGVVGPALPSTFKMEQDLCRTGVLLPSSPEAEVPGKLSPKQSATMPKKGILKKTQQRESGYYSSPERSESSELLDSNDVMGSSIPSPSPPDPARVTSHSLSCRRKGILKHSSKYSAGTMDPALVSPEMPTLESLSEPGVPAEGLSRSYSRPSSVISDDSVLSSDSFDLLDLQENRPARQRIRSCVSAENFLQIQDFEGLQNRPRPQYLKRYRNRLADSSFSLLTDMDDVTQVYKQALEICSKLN
Description: (§1) Every kinase activity measurement was conducted in duplicate.
(§2) Specifically, in these assays, a positively charged substrate is phosphorylated with a radiolabeled phosphate group from an ATP if the kinase is not inhibited by an inhibitor peptide. The positively charged substrate then is attracted to a negatively charged filter membrane, quantified with a scintillation counter, and compared to a 100% activity control.
(§3) In addition to determining the IC50 of the compound, the specificity of MK2 inhibitory peptides was assessed by examining activities of all 266 human kinases available for testing in the Millipore kinase profiling service (Table 1).

CK1δ (h) = target: T2, CK1δ (h) (Homo sapiens, UniProt P48730)
T2 construct: purchased Millipore
T2 sequence (P48730 whole entry): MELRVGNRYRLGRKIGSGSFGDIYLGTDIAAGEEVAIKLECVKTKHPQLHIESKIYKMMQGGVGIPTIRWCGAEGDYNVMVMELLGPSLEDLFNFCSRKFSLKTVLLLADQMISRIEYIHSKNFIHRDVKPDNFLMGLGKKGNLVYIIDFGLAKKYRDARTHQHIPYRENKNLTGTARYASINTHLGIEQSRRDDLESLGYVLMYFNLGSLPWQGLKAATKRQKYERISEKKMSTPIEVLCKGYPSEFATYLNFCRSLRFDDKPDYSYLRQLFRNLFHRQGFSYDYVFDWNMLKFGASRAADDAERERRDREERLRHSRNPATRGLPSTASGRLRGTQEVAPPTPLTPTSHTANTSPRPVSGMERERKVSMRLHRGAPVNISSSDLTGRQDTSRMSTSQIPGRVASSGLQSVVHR
Description: as §1, §2, §3

HIPK1 (h) = target: T3, HIPK1 (h) (Homo sapiens, UniProt Q86Z02)
T3 construct: purchased Millipore
T3 sequence (Q86Z02 whole entry): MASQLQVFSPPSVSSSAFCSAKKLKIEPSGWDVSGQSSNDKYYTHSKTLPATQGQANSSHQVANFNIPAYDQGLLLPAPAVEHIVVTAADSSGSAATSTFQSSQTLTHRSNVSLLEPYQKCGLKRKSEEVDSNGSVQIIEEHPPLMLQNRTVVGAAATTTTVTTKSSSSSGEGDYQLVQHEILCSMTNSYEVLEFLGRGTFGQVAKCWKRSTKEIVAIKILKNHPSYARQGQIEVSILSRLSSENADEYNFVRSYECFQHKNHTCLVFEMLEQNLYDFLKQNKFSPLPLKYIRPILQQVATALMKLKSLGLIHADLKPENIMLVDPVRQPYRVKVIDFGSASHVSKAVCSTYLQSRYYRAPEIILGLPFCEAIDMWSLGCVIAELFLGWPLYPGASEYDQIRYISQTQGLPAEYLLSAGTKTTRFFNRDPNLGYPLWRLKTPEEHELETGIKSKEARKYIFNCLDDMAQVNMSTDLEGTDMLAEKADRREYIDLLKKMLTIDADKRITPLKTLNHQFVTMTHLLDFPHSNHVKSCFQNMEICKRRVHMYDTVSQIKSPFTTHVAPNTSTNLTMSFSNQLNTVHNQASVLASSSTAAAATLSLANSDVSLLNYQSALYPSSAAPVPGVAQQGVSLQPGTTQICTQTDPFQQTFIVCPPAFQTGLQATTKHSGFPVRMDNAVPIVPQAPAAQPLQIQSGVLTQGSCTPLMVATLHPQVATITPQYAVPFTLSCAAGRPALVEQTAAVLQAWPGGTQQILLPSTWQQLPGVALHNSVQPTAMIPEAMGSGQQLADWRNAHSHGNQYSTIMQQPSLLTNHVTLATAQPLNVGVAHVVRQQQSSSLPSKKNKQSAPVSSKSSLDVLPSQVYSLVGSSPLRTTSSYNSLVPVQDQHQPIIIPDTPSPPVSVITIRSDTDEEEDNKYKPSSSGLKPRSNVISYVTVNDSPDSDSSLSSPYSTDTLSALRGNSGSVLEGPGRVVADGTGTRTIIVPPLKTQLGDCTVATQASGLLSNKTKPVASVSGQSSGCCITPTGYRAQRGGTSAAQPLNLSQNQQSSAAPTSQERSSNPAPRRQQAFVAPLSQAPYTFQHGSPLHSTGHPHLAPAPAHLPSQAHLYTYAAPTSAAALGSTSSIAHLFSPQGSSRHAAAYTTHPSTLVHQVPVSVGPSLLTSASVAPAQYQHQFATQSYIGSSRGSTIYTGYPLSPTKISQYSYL
Description: as §1, §2, §3

Met(M1268T) (h) = Met(M1268T) (h) (Homo sapiens, UniProt P08581, M1250T)
Description: as §1, §2, §3

PDK1 (h) = target: T4, PDK1 (h) (Homo sapiens, UniProt O15530)
T4 construct: purchased Millipore
T4 sequence (O15530 1-556): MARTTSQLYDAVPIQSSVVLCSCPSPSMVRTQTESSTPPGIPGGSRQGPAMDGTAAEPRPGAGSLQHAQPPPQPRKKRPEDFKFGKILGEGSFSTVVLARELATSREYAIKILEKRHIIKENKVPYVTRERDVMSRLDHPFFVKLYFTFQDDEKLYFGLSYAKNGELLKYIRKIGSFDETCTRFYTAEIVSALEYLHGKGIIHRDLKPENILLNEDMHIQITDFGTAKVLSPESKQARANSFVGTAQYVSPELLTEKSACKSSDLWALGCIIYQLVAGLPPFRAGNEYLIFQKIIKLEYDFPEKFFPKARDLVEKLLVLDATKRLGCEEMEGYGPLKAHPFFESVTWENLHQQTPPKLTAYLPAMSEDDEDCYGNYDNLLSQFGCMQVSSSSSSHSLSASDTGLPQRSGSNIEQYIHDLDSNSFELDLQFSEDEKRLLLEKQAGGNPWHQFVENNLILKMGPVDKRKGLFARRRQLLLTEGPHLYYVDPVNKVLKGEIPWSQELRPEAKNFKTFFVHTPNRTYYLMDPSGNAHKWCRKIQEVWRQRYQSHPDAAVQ
Description: as §1, §2, §3

PKCγ (h) = target: T5, PKCγ (h) (Homo sapiens, UniProt P05129)
T5 construct: purchased Millipore
Description: as §1, §2, §3

Pim-2 (h) = target: T6, Pim-2 (h) (Homo sapiens, UniProt Q9P1W9)
T6 construct: purchased Millipore
T6 sequence (Q9P1W9 whole entry): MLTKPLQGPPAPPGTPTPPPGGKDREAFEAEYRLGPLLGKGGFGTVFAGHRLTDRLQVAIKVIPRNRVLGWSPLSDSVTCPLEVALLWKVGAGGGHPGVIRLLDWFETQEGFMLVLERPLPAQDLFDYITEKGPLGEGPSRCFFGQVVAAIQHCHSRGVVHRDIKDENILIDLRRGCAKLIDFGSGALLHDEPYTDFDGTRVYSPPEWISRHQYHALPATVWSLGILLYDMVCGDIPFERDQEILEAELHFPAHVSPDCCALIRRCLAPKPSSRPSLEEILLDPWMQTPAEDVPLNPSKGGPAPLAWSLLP
Description: as §1, §2, §3

Ret(V804M) (h) = Ret(V804M) (h) (Homo sapiens, UniProt P07949, V804M)
Description: as §1, §2, §3

Rsk1 (h) = Rsk1 (h) (Homo sapiens, UniProt Q15418)
Sequence of Rsk1 (h) (Q15418 whole entry): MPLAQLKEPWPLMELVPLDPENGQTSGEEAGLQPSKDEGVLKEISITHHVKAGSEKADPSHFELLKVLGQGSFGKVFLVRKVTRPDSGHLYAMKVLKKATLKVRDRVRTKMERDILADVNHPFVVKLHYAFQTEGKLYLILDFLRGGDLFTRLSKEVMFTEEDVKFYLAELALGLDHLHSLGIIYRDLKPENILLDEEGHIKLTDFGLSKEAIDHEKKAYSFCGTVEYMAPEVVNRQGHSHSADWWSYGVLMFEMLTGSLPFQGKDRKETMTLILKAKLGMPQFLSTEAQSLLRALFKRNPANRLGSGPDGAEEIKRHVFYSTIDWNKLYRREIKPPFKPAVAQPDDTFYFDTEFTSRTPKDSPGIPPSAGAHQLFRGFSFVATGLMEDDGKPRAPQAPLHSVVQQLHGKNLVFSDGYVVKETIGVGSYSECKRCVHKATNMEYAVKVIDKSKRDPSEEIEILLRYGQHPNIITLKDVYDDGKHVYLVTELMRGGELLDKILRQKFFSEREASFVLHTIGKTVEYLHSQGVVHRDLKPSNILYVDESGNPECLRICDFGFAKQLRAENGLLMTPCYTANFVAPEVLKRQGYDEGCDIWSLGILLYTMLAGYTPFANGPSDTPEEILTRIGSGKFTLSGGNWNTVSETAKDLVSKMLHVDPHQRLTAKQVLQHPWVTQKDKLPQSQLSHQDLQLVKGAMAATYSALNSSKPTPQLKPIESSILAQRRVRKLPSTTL
Description: as §1, §2, §3

SAPK2a (h) = SAPK2a (h) (Homo sapiens, UniProt Q16539)
Sequence of SAPK2a (h) (Q16539 whole entry): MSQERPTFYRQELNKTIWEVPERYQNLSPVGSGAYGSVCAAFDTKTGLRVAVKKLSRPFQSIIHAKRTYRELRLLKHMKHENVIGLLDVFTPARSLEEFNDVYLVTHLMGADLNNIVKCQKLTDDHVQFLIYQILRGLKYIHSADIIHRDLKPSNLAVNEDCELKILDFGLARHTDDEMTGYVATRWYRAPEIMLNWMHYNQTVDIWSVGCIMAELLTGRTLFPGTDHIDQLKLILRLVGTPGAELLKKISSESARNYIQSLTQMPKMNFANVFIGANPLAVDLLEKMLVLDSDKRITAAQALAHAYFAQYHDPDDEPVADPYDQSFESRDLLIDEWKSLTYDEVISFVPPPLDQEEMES
Description: as §1, §2, §3

SIK (h) = SIK (h) (Homo sapiens, UniProt P57059)
Sequence of SIK (h) (P57059 whole entry): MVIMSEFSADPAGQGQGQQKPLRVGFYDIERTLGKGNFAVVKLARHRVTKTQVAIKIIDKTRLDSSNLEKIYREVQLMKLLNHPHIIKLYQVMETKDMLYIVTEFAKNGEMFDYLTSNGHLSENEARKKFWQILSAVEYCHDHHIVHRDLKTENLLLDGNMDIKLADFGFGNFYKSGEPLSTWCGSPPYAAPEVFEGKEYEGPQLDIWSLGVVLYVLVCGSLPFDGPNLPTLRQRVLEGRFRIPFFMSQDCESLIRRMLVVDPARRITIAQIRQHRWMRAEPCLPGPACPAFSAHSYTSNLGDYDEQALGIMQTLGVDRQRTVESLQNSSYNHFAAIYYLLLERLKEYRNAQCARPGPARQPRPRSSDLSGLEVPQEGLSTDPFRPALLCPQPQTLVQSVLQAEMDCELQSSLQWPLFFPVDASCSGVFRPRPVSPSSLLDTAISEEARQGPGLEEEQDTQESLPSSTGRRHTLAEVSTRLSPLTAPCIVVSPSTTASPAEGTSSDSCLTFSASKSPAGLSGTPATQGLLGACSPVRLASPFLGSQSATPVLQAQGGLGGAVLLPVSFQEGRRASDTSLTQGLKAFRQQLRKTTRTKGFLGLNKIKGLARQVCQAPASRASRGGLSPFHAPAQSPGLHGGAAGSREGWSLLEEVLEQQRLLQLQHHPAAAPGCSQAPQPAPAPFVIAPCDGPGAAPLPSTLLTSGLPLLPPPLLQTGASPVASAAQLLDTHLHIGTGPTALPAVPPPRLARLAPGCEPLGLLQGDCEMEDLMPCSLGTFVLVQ
Description: as §1, §2, §3

Tec (h) activated = target: T7, Tec (h) activated (Homo sapiens, UniProt P42680)
T7 sequence (P42680 1-631): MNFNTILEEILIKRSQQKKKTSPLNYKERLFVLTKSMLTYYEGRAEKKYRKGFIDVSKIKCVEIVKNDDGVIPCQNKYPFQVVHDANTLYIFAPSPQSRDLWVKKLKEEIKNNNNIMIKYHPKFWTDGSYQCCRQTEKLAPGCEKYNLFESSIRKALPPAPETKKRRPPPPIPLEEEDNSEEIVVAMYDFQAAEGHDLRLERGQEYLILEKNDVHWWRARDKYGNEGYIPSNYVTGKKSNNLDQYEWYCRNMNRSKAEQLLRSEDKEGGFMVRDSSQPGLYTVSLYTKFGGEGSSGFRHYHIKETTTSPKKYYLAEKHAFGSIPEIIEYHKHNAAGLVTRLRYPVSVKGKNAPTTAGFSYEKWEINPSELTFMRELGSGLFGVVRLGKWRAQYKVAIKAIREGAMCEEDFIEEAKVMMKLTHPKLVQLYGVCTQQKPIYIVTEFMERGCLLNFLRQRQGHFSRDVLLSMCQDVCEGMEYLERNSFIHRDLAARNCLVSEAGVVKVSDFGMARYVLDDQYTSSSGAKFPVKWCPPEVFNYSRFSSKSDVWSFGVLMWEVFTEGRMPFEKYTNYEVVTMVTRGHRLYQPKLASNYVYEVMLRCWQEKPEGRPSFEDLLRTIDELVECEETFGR
Description: as §1, §2, §3

ZIPK (h) = ZIPK (h) (Homo sapiens, UniProt O43293)
Sequence of ZIPK (h) (O43293 whole entry): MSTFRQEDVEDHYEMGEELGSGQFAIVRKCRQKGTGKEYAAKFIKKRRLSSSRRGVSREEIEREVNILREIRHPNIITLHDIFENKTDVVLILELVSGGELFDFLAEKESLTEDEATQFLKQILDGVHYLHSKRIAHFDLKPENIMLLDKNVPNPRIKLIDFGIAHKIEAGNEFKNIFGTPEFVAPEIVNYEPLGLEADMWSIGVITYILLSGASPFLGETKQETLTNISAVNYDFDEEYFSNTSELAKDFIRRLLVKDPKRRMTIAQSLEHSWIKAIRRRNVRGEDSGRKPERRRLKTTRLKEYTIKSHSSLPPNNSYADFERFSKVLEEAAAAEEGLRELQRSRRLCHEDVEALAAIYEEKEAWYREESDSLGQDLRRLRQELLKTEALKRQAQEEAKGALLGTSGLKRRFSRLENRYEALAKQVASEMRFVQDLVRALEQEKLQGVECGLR
Description: as §1, §2, §3

Met(Y1248H) (h) = Met(Y1248H) (h) (Homo sapiens, UniProt P08581, Y1230H)
Description: as §1, §2, §3

Sequence	% activity (ARK5 (h))	% activity (CK1δ (h))	% activity (HIPK1 (h))	% activity (Met(M1268T) (h))	% activity (PDK1 (h))	% activity (PKCγ (h))	% activity (Pim-2 (h))	% activity (Ret(V804M) (h))	% activity (Rsk1 (h))	% activity (SAPK2a (h))	% activity (SIK (h))	% activity (Tec (h) activated)	% activity (ZIPK (h))	% activity (Met(Y1248H) (h))
FAKLAARLYRKALARQLGVAA [MMI-0300]	78%	92%	74%	255%	135%	89%	76%	95%	46%	90%	66%	56%	28%	–
HRRIKAWLKKIKALARQLGVAA (Mammalian) [MMI-0500]	20%	78%	47%	239%	178%	6%	46%	36%	34%	52%	40%	33%	1%	126%
YARAAARQARAKALNRQLGVA (Mammalian) [MMI-0200]	93%	92%	–	143%	143%	101%	74%	–	–	–	–	77%	67%	153%
KAFAKLAARLYRKALARQLGVAA [MMI-0400]	69%	93%	91%	265%	159%	79%	92%	87%	54%	85%	68%	29%	13%	63%

Source: patent publication US10500249B2, “Compositions and methods for preventing or treating diseases, conditions, or processes characterized by aberrant fibroblast proliferation and extracellular matrix deposition” (MOERAE MATRIX, INC., priority 2014, dated 2019)
